This passage reports EC50 results from patent US20210379110A1 (LENTIGEN TECHNOLOGY, published 2021).

In this assay the target is T1, recombinant human CD22 (labeled) (human, UniProt P20273 20-687, limits assumed).
T1 construct: Labeled antigen titrated on yeast; It may be CD22-Fc; also called labeled CD22
T1 sequence (looked up): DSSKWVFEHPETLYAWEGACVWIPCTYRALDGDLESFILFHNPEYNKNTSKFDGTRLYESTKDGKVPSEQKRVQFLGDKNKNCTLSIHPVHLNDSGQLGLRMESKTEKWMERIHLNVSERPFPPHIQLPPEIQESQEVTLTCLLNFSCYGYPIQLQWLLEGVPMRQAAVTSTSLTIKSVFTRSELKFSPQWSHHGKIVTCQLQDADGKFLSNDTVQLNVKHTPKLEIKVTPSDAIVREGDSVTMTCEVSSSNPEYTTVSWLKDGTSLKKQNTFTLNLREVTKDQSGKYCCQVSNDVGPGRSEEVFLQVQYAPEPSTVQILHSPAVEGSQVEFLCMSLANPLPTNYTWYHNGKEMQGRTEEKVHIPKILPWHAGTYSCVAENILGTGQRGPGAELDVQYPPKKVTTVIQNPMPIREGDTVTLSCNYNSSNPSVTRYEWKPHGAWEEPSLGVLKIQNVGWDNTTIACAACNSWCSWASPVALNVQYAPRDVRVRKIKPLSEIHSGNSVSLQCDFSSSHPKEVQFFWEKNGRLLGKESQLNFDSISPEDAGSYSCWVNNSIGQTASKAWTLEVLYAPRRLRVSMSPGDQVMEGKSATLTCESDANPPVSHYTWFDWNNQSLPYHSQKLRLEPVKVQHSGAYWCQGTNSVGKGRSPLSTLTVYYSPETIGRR
Nature of the assay: flow cytometry of yeast-displayed scFv with decreasing amounts of labeled CD22. The procedure: After electroporation, the resulting mutant library was then grown overnight at 30° C. for 16 hours in SDCAA medium and then switched into SGCAA medium at 30° C. for another 16 hours. The mutant library was then sorted through MACS (immunomagnetic column, Miltenyi Biotec) with CD22-Fc as the capture antigen to downsize the library and to increase the population of mutants that could bind to CD22-Fc. The strongest binders were then selected by double staining the pools with Anti-c-Myc-Alexa 488 and […] and selecting for the binders that had the highest binding affinities as well as c-Myc expression levels. This process was then repeated two more times, until flow cytometry of yeast particles with fluorescently tagged antigen yielded average binding affinities of the mutant pools that were increased over the starting construct. Binding affinities were estimated by flow cytometry of yeast pools using decreasing amounts of labeled CD22.

B1: human anti-CD22 ScFv binder 16P17 (scFv, V domains shown)
VH: QVQLQQSGPGLVKHSQTLSLTCAISGDSVSSNSAAWNWIRQSPSRGLEWLGRTYYRSKWYNDYAVSVKSRITINPDTSKNQFSLQLNSVTPEDTAVYYCAQEVEPHDAFDIWGQGTMVTVSS
VL: DIQMTQSPSSVYASVGDKVTITCRASQDVSGWLAWYQQKPGLAPQLLISGASTLQGEVPSRFSGSGSGTDFTLTISSLQPEDFATYYCQQAKYFPYTFGQGTKLEIK
notes: In the CARs the order is VH-(GGGGS)3-VL; also called CD22 scFv 16P17
With B1, the EC50 – broadly, the concentration giving half of the maximal effect – is < 0.01 µg/mL.
